Source: publication PMC12363175 (2025)

Target: SARS-CoV-2 PT-RBD (SARS-CoV-2 prototype, UniProt P0DTC2)
Test: SPR

Row | Binder | Kd [nM]
1 | horse ACE2 ectodomain fused with mFc (Fc fusion) QSTTEDLAKTFLEKFNSEAEELSHQSSLASWSYNTNITDENVQKMNEAGARWSAFYEEQCKLAKTYPLEEIQNLTVKRQLQALQQSGSSVLSADKSKRLNEILNTMSTIYSTGKVCNPSNPQECLLLEPGLDAIMENSKDYNQRLWAWEGWRSEVGKQLRPLYEEYVVLKNEMARANNYEDYGDYWRGDYEAEGPSGYDYSRDQLIEDVERTFAEIKPLYEHLHAYVRAKLMDTYPSHINPTGCLPAHLLGDMWGRFWTNLYSLTVPFGQKPNIDVTDAMVDQSWDAKRIFEEAEKFFVSVGLPNMTQGFWENSMLTEPGDGRKVVCHPTAWDLGKGDFRIKMCTKVTMDDFLTAHHEMGHIQYDMAYAVQPYLLRNGANEGFHEAVGEIMSLSAATPNHLKAIGLLPPDFYEDSETEINFLLKQALTIVGTLPFTYMLEKWRWMVFKGEIPKEEWMKKWWEMKREIVGVVEPVPHDETYCDPAALFHVANDYSFIRYYTRTIYQFQFQEALCQTAKHEGPLHKCDISNSTEAGQKLLQMLSLGKSEPWTLALERIVGVKNMDVRPLLNYFEPLFTWLKDQNKNSFVGWSTNWSPYADQSIKVRISLKSALGEKSYEWNDNEMYLFQSSVAYAMRVYFLKAKNQTILFGEEDVWVSDLKPRISFNFFVTSPKNASDIIPRTDVEEAIRMSRSRINDAFRLDDNTLEFLGIQPTLGPPYQPPVT | 64.4
2 | sheep ACE2 ectodomain fused with mFc (Fc fusion) QSTTEGQAKTFLEKFNHEAEDLSYQSSLASWNYNTNITDENVQKMNEARAKWSAFYEEQSRMARTYSLEEIQNLTLKRQLKALQHSGTSVLSAEKSKRLNTILNKMSTIYSTGKVLDPNTQECLALEPGLDDIMENSRDYNRRLWAWEGWRAEVGKQLRPLYEEYVVLENEMARANNYEDYGDYWRGDYEVTGAGDYDYSRDQLMKDVERTFEEIKPLYEQLHAYVRAKLMDTYPSYISPTGCLPAHLLGDMWGRFWTNLYSLTVPFEHKPSIDVTEKMKNQSWDAERIFKEAEKFFVSIGLPYMTQGFWDNSMLTEPGDGRKVVCHPTAWDLGKGDFRIKMCTKVTMDDFLTAHHEMGHIQYDMAYATQPYLLRNGANEGFHEAVGEIMSLSAATPHYLKALGLLAPDFYEDNETEINFLLKQALTIVGTLPFTYMLEKWRWMVFKGEIPKQQWMEKWWEMKREIVGVVEPLPHDETYCDPACLFHVAEDYSFIRYYTRTIYQFQFHEALCKTAKHEGALFKCDISNSTEAGQRLLQMLRLGKSEPWTLALENIVGIKTMDVKPLLNYFEPLFTWLKEQNRNSFVGWSTEWTPYSDQSIKVRISLKSALGENAYEWNDNEMYLFRSSVAYAMRKYFLKERNETIPFGEENVWVSDKKPRISFKFFVTSPNNVSDIIPRTEVENAIRLCRDRINDAFQLDDNSLEFLGIQPTLRPPYEPP | 171
3 | Chinese hamster ACE2 ectodomain fused with mFc (Fc fusion) QSIIEEQAKTFLDKFNQEAEDLSYQSALASWNYNTNITEENAQKMNEAAAKWSAFYEEQSKLAKNYSLQEVQNLIIKRQLQALQQSGSSALSADKNKQLNTILNTMSTIYSTGKVCNPKNPQECLLLEPGLDDIMATSTDYNERLWAWEGWRAEVGKQLRPLYEEYVVLKNEMARANNYKDYGDYWRGDYEAEGADGYNYNGNQLIEDVERTFKEIKPLYEQLHAYVRTKLMDTYPSFISPTGCLPAHLLGDMWGRFWTNLYPLTVPFGQKPNIDVTDAMVNQGWDAERIFKEAEKFFVSVGLPHMTQGFWGNSMLTDPGDDRKVVCHPTAWDLGKGDFRIKMCTKVTMDNFLTAHHEMGHIQYDMAYATQPFLLRNGANEGFHEAVGEIMSLSAATPKHLKSIGLLPSNFHEDNETEINFLLKQALTIVGTLPFTYMLEKWRWMVFKGDIPKEKWMEKWWEMKREIVGVVEPLPHDETYCDPAALFHVSNDYSFIRYYTRTIYQFQFQEALCQAAKHDGPLHKCDISNSTEAGQKLLNMLRLGKSEPWTLALENVVGARNMDVRPLLNYFEPLSVWLKEQNKNSFVGWNTDWSPYADQSIKVRISLKSALGENAYEWNDNEMYLFRATVAYAMRVYFAKNKTQTVLFGVEDIRVSDLKPRVSFNFFVTSPQNVSDIIPRNEVEEAVRFSRGRINDVFGLDDNSLEFLGINPTLAPPYQPPVT | 69.4
4 | wild Bactrian camel ACE2 ectodomain fused with mFc (Fc fusion) QSTTEELAKTFLEEFNHEAEDLSYQSSLASWNYNTNITDENVQKMNDARAKWSTFYEEKSKTAKTYPLEEIQNVTLKRQLQALQQSGASALSADKSKRLTTVLSTMSTIYSSGEVCDPNNPQECLVLEPGLDDIMENSKDYNQRLWAWEGWRAEVGKQLRPLYEEYVVLKNEMARANNYEDYGDYWRGDYEVMWAGDYDYSRDQLMGDVEHTFAEIKPLYEHLHAYVRAKLMDVYPSHISPTGCLPAHLLGDMWGRFWTNLYSLTVPFGQKPNIDVTEAMENQSWDAKRIFKEAEKFFVSIGLPNMTQGFWDNSMLTEPGDGRKVVCHPTAWDLGKGDFRIKMCTKVTMDDFLTAHHEMGHIQYDMAYAIQPFLLRNGANEGFHEAVGEIMSLSAATPHYLKALGLLPADFYEDSETEINFLLKQALTIVGTLPFTYMLEKWRWMVFKGEIPKEQWMQKWWEMKREIVGVVEPLPHDETYCDPACLFHVAEDYSFIRYYTRTIYQFQFHEALCQIAKHEGPLYKCDISNSTEAGQKLLQMLSLGKSEPWTLALEGLVGVKTMDVKPLLNYFEPLLTWLKDQNRNSFVGWSTDWTPYTDQSIKVRISLKSALGDKAYEWNDNEMYLFQSSLAYAMRKYFLKVQNQTILFGVEDVWVSDLKPRISFSFFVTSPKNVSDIIPRTEVEEAIRMSRSRINDAFRLDDNSLEFLGIQPTLGPPYEPP | 993
5 | golden hamster ACE2 ectodomain fused with mFc (Fc fusion) QSIIEEQAKTFLDKFNQEAEDLSYQSALASWNYNTNITEENAQKMNEAAAKWSAFYEEQSKLAKNYSLQEVQNLTIKRQLQALQQSGSSALSADKNKQLNTILNTMSTIYSTGKVCNPKNPQECLLLEPGLDDIMATSTDYNERLWAWEGWRAEVGKQLRPLYEEYVVLKNEMARANNYEDYGDYWRGDYEAEGADGYNYNGNQLIEDVERTFKEIKPLYEQLHAYVRTKLMNTYPSYISPTGCLPAHLLGDMWGRFWTNLYPLTVPFGQKPNIDVTDAMVNQGWNAERIFKEAEKFFVSVGLPYMTQGFWENSMLTDPGDDRKVVCHPTAWDLGKGDFRIKMCTKVTMDNFLTAHHEMGHIQYDMAYATQPFLLRNGANEGFHEAVGEIMSLSAATPEHLKSIGLLPSDFQEDNETEINFLLKQALTIVGTLPFTYMLEKWRWMVFKGDIPKEQWMEKWWEMKREIVGVVEPLPHDETYCDPAALFHVSNDYSFIRYYTRTIYQFQFQEALCQAAKHDGPLHKCDISNSTEAGQKLLNMLRLGKSEPWTLALENVVGARNMDVRPLLNYFEPLSVWLKEQNKNSFVGWNTDWSPYADQSIKVRISLKSALGENAYEWDDNEMYLFRASVAYAMRVYFAKNKTQTVPFGVEDIRVSDLKPRVSFNFFVTSPQNVSDIIPRNEVEEAVRLSRGRINDVFGLDDNSLEFLGINPTLSPPYQPPVT | 71.8
